T1: 人TIGIT (TIGIT-Jurkat细胞表面) (human, UniProt Q495A1 22-244)
T1 construct: whole, on cells
T1 sequence (looked up): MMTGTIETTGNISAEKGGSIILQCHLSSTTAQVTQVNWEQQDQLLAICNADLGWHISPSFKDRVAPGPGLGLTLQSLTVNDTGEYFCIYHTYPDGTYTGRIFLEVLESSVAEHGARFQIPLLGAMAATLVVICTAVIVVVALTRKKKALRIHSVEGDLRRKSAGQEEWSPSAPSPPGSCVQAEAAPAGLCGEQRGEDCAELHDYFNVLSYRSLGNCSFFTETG


Target: T1, 人TIGIT (TIGIT-Jurkat细胞表面)
Experiment: flow cytometry competition: blocking of PVR-Fc-bio (12.5 nM) binding to TIGIT-Jurkat cells

Binder	IC50 [nM]
抗体h10D8OF (antibody, human IgG1, kappa, V domains shown, also called 抗TIGIT抗体) VH: QVQLVESGGGVVQPGRSLRLDCKASGFTFSSYGMSWVRQAPGKGLELVATINSNGGSTYYPDSVKGRFTISRDNSKNTLFLQMNSLRAEDTAVYYCARLGTGTLGFAYWGQGTLVTVSS VL: EIVMTQSPATLSLSPGERATLSCKASQDVKTAVSWYQQKPGQAPRLLIYWASTRATGIPARFSGSGSGTDYTLTISSLEPEDFAVYYCQQHYSTPWTFGQGTKVEIKR	0.441
抗体h10D8OFKF (antibody, human IgG1, kappa, V domains shown, also called 抗TIGIT抗体) VH: QVQLVESGGGVVQPGRSLRLDCKASGFTFSSYGMSWVRQAPGKGLELVATINSNGGSTYYPDSVKGRFTISRDNSKNTLFLQMNSLRAEDTAVYYCARLGTGTLGFAYWGQGTLVTVSS VL: EIVMTQSPATLSLSPGERATLSCKASQDVKTAVSWYQQKPGQAPRLLIYWASTRATGIPARFSGSGSGTDYTLTISSLEPEDFAVYYCQQHYSTPWTFGQGTKVEIKR	0.742
参照抗体Tiragolumab (antibody, V domains shown) VH: EVQLQQSGPGLVKPSQTLSLTCAISGDSVSSNSAAWNWIRQSPSRGLEWLGKTYYRFKWYSDYAVSVKGRITINPDTSKNQFSLQLNSVTPEDTAVFYCTRESTTYDLLAGPFDYWGQGTLVTVSS VL: not shown	2.82
